Laboratory results published in US5792742.

What was measured:
[1] = target: fibrin (fibrinogen dried on microtiter wells and converted with thrombin); experiment: direct ELISA on fibrin-coated wells, reference intact fibronectin
[2] = target: fibrin (fibrinogen dried on microtiter wells and converted with thrombin); experiment: competition on fibrin-coated wells, competitor 125I-11 kDa (90 nM)
[3] = target: fibrin (fibrinogen dried on microtiter wells and converted with thrombin); experiment: displacement of bound 125I-11 kDa from fibrin-coated wells by 2,000 nM unlabeled 11 kDa
fibrinogen-SEPHAROSE = experiment: binding to a fibrinogen-SEPHAROSE column at 37° C. (material eluted with ethylene glycol)
[4] = target: fibrin (fibrinogen dried on microtiter wells and converted with thrombin); experiment: competitive ELISA on fibrin-coated wells, competitor biotinylated Fn (2.3 nM)
[5] = target: fibrin (fibrinogen dried on microtiter wells and converted with thrombin); experiment: direct binding of 125I-11 kDa to fibrin-coated wells (15 ng fibrin)
[6] = target: fibrin (fibrinogen dried on microtiter wells and converted with thrombin); experiment: direct binding of 125I-11 kDa to fibrin-coated removable wells, non-linear regression, one binding site model
[7] = target: fibrin (fibrinogen dried on microtiter wells and converted with thrombin); experiment: competitive ELISA against intact Fn on fibrin
[8] = target: fibrin (fibrinogen dried on microtiter wells and converted with thrombin); experiment: competitive ELISA on fibrin-coated plates, competitor Fn (2.3 nM)
[9] = target: fibrin (fibrinogen dried on microtiter wells and converted with thrombin); experiment: competitive ELISA on fibrin-coated wells, competitor fibronectin (FIG. 29)
[10] = target: fibrin (fibrinogen dried on microtiter wells and converted with thrombin); experiment: competitive ELISA on fibrin-coated wells, competitor biotinylated Fn (FIG. 29)
[11] = target: fibrin (fibrinogen dried on microtiter wells and converted with thrombin); experiment: competitive ELISA on fibrin-coated wells, Cheng and Prussoff equation from the IC50
[12] = target: fibrin (fibrinogen dried on microtiter wells and converted with thrombin); experiment: competitive ELISA on fibrin-coated wells, competitor biotinylated Fn (2.3 nM), 10 µM of the module pair
[13] = target: fibrin (fibrinogen dried on microtiter wells and converted with thrombin); experiment: direct ELISA on fibrin-coated wells (FIGS. 27A and 28A)
[14] = target: fibrin (fibrinogen dried on microtiter wells and converted with thrombin); experiment: competitive ELISA on fibrin-coated plates, competitor Fn (2.3 nM), 50,000 molar excess
[15] = target: fibrin (fibrinogen dried on microtiter wells and converted with thrombin); experiment: direct ELISA on fibrin-coated plates (FIG. 27A)
[16] = target: fibrin (fibrinogen dried on microtiter wells and converted with thrombin); experiment: competitive ELISA on fibrin-coated wells, reference intact Fn
[17] = target: fibrin (fibrinogen dried on microtiter wells and converted with thrombin); experiment: competitive ELISA on fibrin-coated wells, competitor biotinylated Fn (2.3 nM), 10 µM of the fragment
[18] = target: fibrin-SEPHAROSE (bovine fibrinogen cross-linked to CNBr-activated SEPHAROSE and converted to fibrin with human thrombin) (bovine) (UniProt P02672); experiment: fibrin-SEPHAROSE chromatography of 35S-labeled COS supernatant, densitometry of the autoradiogram

Substance: 11 kDa C-terminal fibrin-binding fragment of fibronectin (peptide)
- times more bound than intact fibronectin (mole-per-mole) [1]: 20 times
- IC50 [2]: 605 nM
- concentration at maximum inhibition [2]: 4 µM
- % of bound iodinated 11 kDa displaced [3]: 42%
- % of the applied material bound (fibrinogen-SEPHAROSE): 4 to 5%

Substance: recombinant ^10 F1 module of fibronectin (peptide)
- % inhibition of biotinylated Fn binding [4]: 10%

Substance: ^125 I-11 kDa fibrin-binding peptide
- concentration at 50% saturation [5]: 90 nM
- Kd [6]: 154 nM

Substance: recombinant ^4 F1.^5 F1 module pair of fibronectin (expressed in Saccharomyces cerevisiae) (peptide)
- % inhibition (so in the source) [7]: 30%
- % inhibition of Fn binding at saturating concentration [8]: 70%
- IC50 [8]: 750 nM
- concentration at maximum inhibition [8]: 10 µM
- % blocking of fibronectin binding [9]: 36%
- IC50 [4]: 700 nM
- maximum % inhibition of Fn binding [10]: 67%
- Ki [11]: 695 nM
- maximal % inhibition of biotinylated Fn binding [12]: 67%

Substance: biotinylated fibronectin
- concentration at saturation of binding [13]: 4.5 nM

Substance: recombinant ^7 F1 module of fibronectin (peptide)
- % inhibition of Fn binding [14]: < 20%

Substance: human plasma fibronectin (intact)
- concentration at 75% of the maximum binding [15]: 2.3 nM
- concentration at saturation of binding [15]: 4.54 nM
- IC50 [4]: 20 nM
- concentration for complete inhibition [4]: 2.2 µM

Substance: 25.9 kDa N-terminal proteolytic fibrin-binding fragment of fibronectin (peptide)
- fold higher concentration than intact Fn for 50% inhibition [16]: 7.5 fold
- IC50 [4]: 150 nM
- Ki [11]: 145 nM
- maximal % inhibition of biotinylated Fn binding [17]: 75%

Substance: ^35 S-methionine labeled recombinant ^10 F1-end (expressed in COS cells) (peptide)
- % of bound protein released by warming to 22° C. [18]: 35%
- % of bound protein that required 6M urea for elution [18]: 65%
